Assay results taken from article PMC7955049, “ADAR1 RNA editing enzyme regulates R-loop formation and genome stability at telomeres in cancer cells” (Nature Communications, 2021).

Molecular target: T1, FLAG-ADAR1p110-WT (UniProt P55265-5 1-931)
T1 construct: ADAR1 (ADAR, DRADA), nuclear p110 isoform, wild type; also called F-ADAR1p110-WT; F-ADAR1p110; source: HEK293T, stably expressing (p3XFLAG-CMV-10 plasmid co-transfected with pPUR), in lysate of formaldehyde-fixed cells
T1 sequence (looked up): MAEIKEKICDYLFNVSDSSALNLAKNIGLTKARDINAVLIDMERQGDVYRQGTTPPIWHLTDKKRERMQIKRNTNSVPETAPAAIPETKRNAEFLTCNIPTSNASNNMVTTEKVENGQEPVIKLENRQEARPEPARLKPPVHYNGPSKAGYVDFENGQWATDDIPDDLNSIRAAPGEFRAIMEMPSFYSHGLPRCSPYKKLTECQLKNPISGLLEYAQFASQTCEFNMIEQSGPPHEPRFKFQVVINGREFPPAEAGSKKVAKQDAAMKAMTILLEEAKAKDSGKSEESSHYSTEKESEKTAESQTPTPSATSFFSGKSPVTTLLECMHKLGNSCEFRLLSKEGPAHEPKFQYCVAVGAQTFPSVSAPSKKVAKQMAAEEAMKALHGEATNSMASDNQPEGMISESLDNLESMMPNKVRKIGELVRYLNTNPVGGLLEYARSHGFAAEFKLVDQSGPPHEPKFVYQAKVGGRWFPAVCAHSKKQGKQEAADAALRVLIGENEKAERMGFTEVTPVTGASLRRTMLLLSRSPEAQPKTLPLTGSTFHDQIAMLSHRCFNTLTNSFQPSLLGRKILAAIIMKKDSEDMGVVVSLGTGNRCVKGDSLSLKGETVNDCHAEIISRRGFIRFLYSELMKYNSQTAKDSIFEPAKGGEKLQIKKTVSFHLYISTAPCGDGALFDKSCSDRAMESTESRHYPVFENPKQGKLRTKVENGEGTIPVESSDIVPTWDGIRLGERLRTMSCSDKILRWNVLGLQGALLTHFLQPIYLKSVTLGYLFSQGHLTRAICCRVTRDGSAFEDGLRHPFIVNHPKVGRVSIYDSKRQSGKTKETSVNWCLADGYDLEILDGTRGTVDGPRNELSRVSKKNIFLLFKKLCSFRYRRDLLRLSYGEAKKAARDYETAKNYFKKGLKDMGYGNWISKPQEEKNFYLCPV
Experiment: co-IP; cells expressing the FLAG-tagged bait fixed with 0.3% formaldehyde, lysed in co-IP buffer (50 mM Tris-HCl pH 7.6, 150 mM NaCl, 1 mM EDTA, 1% NP-40, 0.5% sodium deoxycholate, 0.1% SDS, RNasin Plus) and sonicated; anti-FLAG M2 magnetic beads overnight at 4 °C; immunoblot; for Fig. 10c HEK293T cells unsynchronized or synchronized at M phase (thymidine-nocodazole)
Settings: partners not purified

B1: RNase H2A (natural protein, human (endogenous in HEK293T), UniProt O75792 1-299, looked up)
chain: MDLSELERDNTGRCRLSSPVPAVCRKEPCVLGVDEAGRGPVLGPMVYAICYCPLPRLADLEALKVADSKTLLESERERLFAKMEDTDFVGWALDVLSPNLISTSMLGRVKYNLNSLSHDTATGLIQYALDQGVNVTQVFVDTVGMPETYQARLQQSFPGIEVTVKAKADALYPVVSAASICAKVARDQAVKKWQFVEKLQDLDTDYGSGYPNDPKTKAWLKEHVEPVFGFPQFVRFSWRTAQTILEKEAEDVIWEDSASENQEGLRKITSYFLNEGSQARPRSSHRYFLERGLESATSL
notes: RNase H2 subunit A (RNaseH2A, AGS4), endogenous; also called RNase H2 subunit H2A; endogenous RNase H2A; source: endogenous, HEK293T lysate
fold increase of the co-IP in M-phase synchronized against unsynchronized cells: > 3 fold
